Target: the molecule itself
Test: SEC-MALS

B1: Full-length human dehydrodolichyl diphosphate synthase (DHDDS) (enzyme, UniProt Q86SQ9 1-333, looked up)
chain: MSWIKEGELSLWERFCANIIKAGPMPKHIAFIMDGNRRYAKKCQVERQEGHSQGFNKLAETLRWCLNLGILEVTVYAFSIENFKRSKSEVDGLMDLARQKFSRLMEEKEKLQKHGVCIRVLGDLHLLPLDLQELIAQAVQATKNYNKCFLNVCFAYTSRHEISNAVREMAWGVEQGLLDPSDISESLLDKCLYTNRSPHPDILIRTSGEVRLSDFLLWQTSHSCLVFQPVLWPEYTFWNLFEAILQFQMNHSVLQKARDMYAEERKRQQLERDQATVTEQLLREGLQASGDAQLRRTRLHKLSARREERVQGFLQALELKRADWLARLGTASA
stoichiometry N: 2
